# Data: paper PMC5404360, “Identification of a Novel (-)-5-Epieremophilene Synthase from Salvia miltiorrhiza via Transcriptome Mining” (Frontiers in Plant Science, 2017)
# Changes are numbered by the printed parent chain.
# B1: SmSTPS1 (Salvia miltiorrhiza) (protein)
# chain: MATTQAQIQRPIANFSPSLWGDQFIKNDPGAKAAEKHCKAVEELKKEVMNMITAAGSNLVEAMNLIDTLERLGISYHFEKEIDQKLKHFFNLNKDYSDESYDLYTVSLHFRLFRQHGHRISSDIFGRWIDESGKFKEGLKTDGKGLLSLYEASYLRTRGETILDDALEFATATLNSIAPHLESPLSKQVVHALIQPLHYGNPRIEAHNFISIYEENQDKNEFLLRFAKLDYNLLQMLHKEELNEVSRWWKELDLVSKLPYARDRVVECFFWAMGVYHEPQYSRARIMLTKTITMTSIIDDTYDAYGVIEELDIFTEAIERWNMEEMKKLPEYIQPFYKALLELYEQFEEELAEEGRSYAAHYAIESLKELVRSYHVEAKWFIQGYLPPFEEYLKNALITCTYCYHTTTSLLGVESAVEEDFEWLANKPKMLVAGLLICRVIDDIATYEVEKERGQSATGIESYMRDNNATIEEAVAKFFEIATDAWKDINEECLMPSPYSRDVLMRILNLERIIDVTYKGNEDGYTQPEKVLKPHIIALFVDPIKM
# notes: full-length ORF, 546 aa, in pET-32a (N-terminal thioredoxin/His tag fusion, kept), E. coli Rosetta (DE3), Ni-NTA purified
# B2: SmSTPS2 (Salvia miltiorrhiza) (protein)
# chain: MATTQVEIQRPIANFSPSLWGDQFIKNDSGAKAAEKHCKAVEELKKEVMNMITAGGSNLVEAMNLIDTLERLGISYHFEKEIDQKLNHFFNLNTDYSDEFYDLYTVSLHFRLFRQHGHRISSDIFGRWIDESGKFKEGLKTDGKGLLSLYEASYLRTRGETILDDALEFATATLNSIAPHLESPLSKQVVHALIQPLHYGNPRIEAHNFISIYEENQDKNEFLLKFAKLDYNLLQMLHKEELHEVSRWWKELDLVSKLPYARDRVVECFFWAMGVYHEPQYSRARIMLTKTITMTSIIDDTYDAYGVIEELDIFTEAIERWNIEEMDRLPEYVKPFYKALLELYEQFEEELAEEGRSYAAHYAIESLKELVRSYHVEAKWFIQGYLPPFEEYLKNALITCTYCYHTTTSLLGVESAVEEDFQWLAKKPKMLVAGLLICRVIDDIATYEVEKERGQSATGIESYMRDNNATIEEAVAKFFEIATDAWKDINEECLMPSPYSRDVLMRILNLERIIDVTYKGNEDGYTQPEKVLKPHIIALFVDPIKM
# notes: as for B1
# B3: SmSTPS3 (Salvia miltiorrhiza) (protein)
# chain: B2 chain with G55A, G56E, N91S, F100S
# notes: as for B1
# Key:
# Test in all cases: GC-MS product quantification, Michaelis-Menten fit
# Format in all cases: biochemical, Salvia miltiorrhiza
# Conditions in all cases: Mg2+ (5 mM MgCl2), 25 mM HEPES pH 7.0, 5 mM DTT, 30°C, 5 min, FPP 2.3-184.6 μM
# [1] = substrate: CC(C)=CCC/C(C)=C/CC/C(C)=C/CO[P@@](=O)(O)OP(=O)(O)O
# From the text: GC-MS product quantification, Michaelis-Menten fit on […]1
# [2] = substrate: CC(C)=CCC/C(C)=C/CC/C(C)=C/CO[P@@](=O)(O)OP(=O)(O)O; remark: listed apart in the source
# From the text: GC-MS product quantification, Michaelis-Menten fit on […]2
# [3] = substrate: CC(C)=CCC/C(C)=C/CC/C(C)=C/CO[P@@](=O)(O)OP(=O)(O)O; remark: listed apart in the source
# From the text: GC-MS product quantification, Michaelis-Menten fit on […]3
protein,measurement,setting,value
B1,Km,[1],25.35 ± 1.88 µM
same,kcat,[1],2.09 ± 0.05 s⁻¹
same,kcat/Km,[1],82700 ± 40600 M⁻¹ s⁻¹
B2,Km,[2],24.20 ± 0.84 µM
same,kcat,[2],2.07 ± 0.13 s⁻¹
same,kcat/Km,[2],85600 ± 38200 M⁻¹ s⁻¹
B3,Km,[3],10.44 ± 1.07 µM
same,kcat,[3],1.53 ± 0.02 s⁻¹
same,kcat/Km,[3],148000 ± 13200 M⁻¹ s⁻¹
